{"source": "paper PMC10783487", "about": "(Nucleic Acids Research, 2023)", "proteins": {"B1": {"name": "Thermoanaerobacter brockii Can2 E341A mutant (TbrCan2^E341A), catalytically inactive (enzyme)", "chain": "MNEKVLVLIVGTNPLPNYVVGSHLKEKYDKFVLIYSEKNDKINQNSTYDYAKKLKEHLNLNDKCIFLPLSDVSNSEKIINDLREKFPSEDFVEVHLNYTGGTKTMVVHIYNFLKEKFKNNKIKFEGSYLDARDYKLVYDYSEEAISLKDTIKIDINTLLSIHLYEDIHFEFYDTYSYKQKFVDSFDKISQEIEKAIKDDKGEDFVKWLEDPFRKIFKGENKLLEKTAKFKKHIEKLLKDNDSSPIVKFNEKTPQFIWDILNAFPEGKKLNDGQKLWIPDDKITNDNLSSRVKDTVEFLNGKWFEWYVYSQIKSELLDRKLKEGEHFGISLKAQKKDSPYFALDIFLINGYQLIGISLTTSSTRELCKLKGFEVIHRVRQIGGDESKAILITGMDKSKTEDLQKDLAYETGSTQKRFVVFGIDDWADIGSKICEEVFK"}}, "target": "the molecule itself", "experiment": "crystal structure"}
{"protein": "B1", "values": [{"measurement": "stoichiometry N", "value": 2}]}
